{
  "source": "patent US20200308303A1",
  "about": "(KATHOLIEKE UNIVERSITEIT LEUVEN, published 2020)",
  "molecular_target": "ovine ADAMTS13 (sheep (ovine))",
  "test": "cell-based or functional assay",
  "data": [
    {"binder": "monoclonal anti-ADAMTS13 antibody 17C7 (antibody, V domains shown, Biotinylated when used as detector; the site is not stated and the letters cannot carry it.) VH: EVQLVESGGDLVKSGGSLKLSCAASGFIFSNYAMSWVRQTPEKRLEWGATITTGGFYTFYSDSVKGRFTISRDNAKNTLYLQMSSLRSEDTAMYYCARHRYDDYYALDYWGQGTSVTVSS VL: ENVLTQSPAIMSTSPGEKVTMTCNVSSSVSYMRWFQQKSSTSPKLWIYDTSKLASGVPGRFSGSGSGHSYSLTISSMEADDVATYYCFQGNGYPLTFGAGTKLELK", "values": [
      {"measurement": "half maximal inhibitory concentration (IC50) of ADAMTS13 activity in ovine plasma, FRETS-VWF71 assay", "result": 2.4, "unit": "µg/mL"}
    ]}
  ]
}
